Our source for the percent of μ3 pulled down (GST-STG^9A = 100%) values is publication PMC8335659.

In this test the target is GST-STG^9D. Briefly: pull-down; purified GST fusion of the STG C terminus incubated 1 h at 4 °C with lysate of HEK293T cells expressing FLAG-tagged μ2 or μ3, with or without 500 μM MPR^AA or MPR^DD peptide; glutathione Sepharose; blots with anti-FLAG and anti-GST.

B1: FLAG-tagged μ3 (natural protein)
chain: MIHSLFLINCSGDIFLEKHWKSVVSQSVCDYFFEAQEKAADVENVPPVISTPHHYLISIYRDKLFFVSVIQTEVPPLFVIEFLHRVADTFQDYFGECSEAAIKDNVVIVYELLEEMLDNGFPLATESNILKELIKPPTILRSVVNSITGSSNVGDTLPTGQLSNIPWRRAGVKYTNNEAYFDVVEEIDAIIDKSGSTVFAEIQGVIDACIKLSGMPDLSLSFMNPRLLDDVSFHPCIRFKRWESERVLSFIPPDGNFRLISYRVSSQNLVAIPVYVKHSISFKENSSCGRFDITIGPKQNMGKTIEGITVTVHMPKVVLNMNLTPTQGSYTFDPVTKVLAWDVGKITPQKLPSLKGLVNLQSGAPKPEENPNLNIQFKIQQLAISGLKVNRLDMYGEKYKPFKGVKYVTKAGKFQVRT
With B1, the percent of μ3 pulled down (GST-STG^9A = 100%) came to 21%.
